Paper PMC7782693, “Structural insights into photoactivation of plant Cryptochrome-2” (Communications Biology, 2021)

Tests used:
[1] = target: the molecule itself; test: SEC; Superdex-200 gel filtration, 20 mM Tris pH 8.0, 200 mM NaCl, 2 mM DTT, 4% glycerol; molecular weights estimated against standards
[2] = target: the molecule itself; test: crystal structure; hanging-drop vapor diffusion at 25 °C under continuous full-spectrum white light (40 μmol m^2 s^-1); 1.5 M sodium nitrate, 0.1 M BIS-TRIS propane pH 7.0; tetramer of four monomers A-D

B1: Arabidopsis CRY2 photolyase homologous region (PHR) domain (domain or fragment, Arabidopsis thaliana, UniProt Q96524 1-498, looked up)
chain: MKMDKKTIVWFRRDLRIEDNPALAAAAHEGSVFPVFIWCPEEEGQFYPGRASRWWMKQSLAHLSQSLKALGSDLTLIKTHNTISAILDCIRVTGATKVVFNHLYDPVSLVRDHTVKEKLVERGISVQSYNGDLLYEPWEIYCEKGKPFTSFNSYWKKCLDMSIESVMLPPPWRLMPITAAAEAIWACSIEELGLENEAEKPSNALLTRAWSPGWSNADKLLNEFIEKQLIDYAKNSKKVVGNSTSLLSPYLHFGEISVRHVFQCARMKQIIWARDKNSEGEESADLFLRGIGLREYSRYICFNFPFTHEQSLLSHLRFFPWDADVDKFKAWRQGRTGYPLVDAGMRELWATGWMHNRIRVIVSSFAVKFLLLPWKWGMKYFWDTLLDADLECDILGWQYISGSIPDGHELDRLDNPALQGAKYDPEGEYIRQWLPELARLPTEWIHHPWDAPLTVLKASGVELGTNYAKPIVDIDTARELLAKAISRTREAQIMIGAA
notes: Cryptochrome-2 (CRY2), Arabidopsis thaliana, PHR domain, residues 1-498, wild type; Expressed as a GST fusion from the pFastbac-GST vector; GST removed by TEV protease on the column; The crystal holds four copies (monomers A-D); in solution mostly monomer; also called AtCRY2-PHR; CRY2-PHR
- stoichiometry N [1]: 2
- stoichiometry N [2]: 4
